# Biological target: aurka_human AURKA (UniProt O14965)
# Sequence (O14965 whole entry): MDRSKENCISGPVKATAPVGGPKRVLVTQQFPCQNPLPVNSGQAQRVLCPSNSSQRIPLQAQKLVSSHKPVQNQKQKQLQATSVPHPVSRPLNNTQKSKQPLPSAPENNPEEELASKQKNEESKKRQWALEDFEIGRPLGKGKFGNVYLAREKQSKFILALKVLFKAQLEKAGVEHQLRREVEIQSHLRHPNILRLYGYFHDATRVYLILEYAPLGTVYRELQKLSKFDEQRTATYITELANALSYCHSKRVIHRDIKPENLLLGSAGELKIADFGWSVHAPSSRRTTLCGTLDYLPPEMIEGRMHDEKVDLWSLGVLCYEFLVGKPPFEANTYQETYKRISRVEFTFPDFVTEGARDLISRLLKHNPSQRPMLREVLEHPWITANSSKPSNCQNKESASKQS
substance,measurement,value
"Heterogeneous nuclear ribonucleoprotein K (Homo sapiens), P61978-2 S379A",effect of a mutation on the interaction,disrupting interaction

# — IntAct's records for PubMed 21821029
